Data on three molecules can be found in paper PMC2883945 (Molecular Biology of the Cell, 2010).

Data set [1] deals with the molecule itself. Kind of data set: SEC + other: sucrose gradient sedimentation.
In data set [2] the target is T1, Bik1 (purified from insect cells, 6xHis tag removed) (S. cerevisiae, UniProt P11709 1-440).
T1 sequence (looked up): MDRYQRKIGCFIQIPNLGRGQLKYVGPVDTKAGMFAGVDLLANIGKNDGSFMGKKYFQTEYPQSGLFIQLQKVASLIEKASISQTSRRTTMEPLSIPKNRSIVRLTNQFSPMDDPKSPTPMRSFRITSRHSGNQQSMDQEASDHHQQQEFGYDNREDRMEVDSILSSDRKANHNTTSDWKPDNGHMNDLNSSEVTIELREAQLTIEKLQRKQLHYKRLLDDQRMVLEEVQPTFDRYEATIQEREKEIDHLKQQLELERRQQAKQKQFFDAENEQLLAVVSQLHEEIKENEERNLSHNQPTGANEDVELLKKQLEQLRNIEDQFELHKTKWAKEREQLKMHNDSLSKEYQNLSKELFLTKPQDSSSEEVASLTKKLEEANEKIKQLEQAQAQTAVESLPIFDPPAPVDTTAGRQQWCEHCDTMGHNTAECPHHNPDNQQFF
In words: SEC + other: sucrose gradient sedimentation.

Data set [3] concerns the target taxol-stabilized microtubules (bovine brain tubulin) (bovine) (UniProt Q6B856). Kind of data set: co-sedimentation.

B1: Bik1, endogenous in yeast whole cell extract (natural protein, S. cerevisiae (endogenous in CUY28), UniProt P11709 1-440, looked up)
chain: MDRYQRKIGCFIQIPNLGRGQLKYVGPVDTKAGMFAGVDLLANIGKNDGSFMGKKYFQTEYPQSGLFIQLQKVASLIEKASISQTSRRTTMEPLSIPKNRSIVRLTNQFSPMDDPKSPTPMRSFRITSRHSGNQQSMDQEASDHHQQQEFGYDNREDRMEVDSILSSDRKANHNTTSDWKPDNGHMNDLNSSEVTIELREAQLTIEKLQRKQLHYKRLLDDQRMVLEEVQPTFDRYEATIQEREKEIDHLKQQLELERRQQAKQKQFFDAENEQLLAVVSQLHEEIKENEERNLSHNQPTGANEDVELLKKQLEQLRNIEDQFELHKTKWAKEREQLKMHNDSLSKEYQNLSKELFLTKPQDSSSEEVASLTKKLEEANEKIKQLEQAQAQTAVESLPIFDPPAPVDTTAGRQQWCEHCDTMGHNTAECPHHNPDNQQFF
By stoichiometry N is commonly meant a count of units in the complex or per binding partner. B1: the “stoichiometry N” value in data set [1] was found to be 2.

B2: Bim1 (purified from insect cells, 6xHis tag removed) (natural protein, S. cerevisiae, UniProt P40013 1-344, looked up)
chain: MSAGIGESRTELLTWLNGLLNLNYKKIEECGTGAAYCQIMDSIYGDLPMNRVKFNATAEYEFQTNYKILQSCFSRHGIEKTVYVDKLIRCKFQDNLEFLQWLKKHWIRHKDESVYDPDARRKYRPIITNNSATKPRTVSNPTTAKRSSSTGTGSAMSGGLATRHSSLGINGSRKTSVTQGQLVAIQAELTKSQETIGSLNEEIEQYKGTVSTLEIEREFYFNKLRDIEILVHTTQDLINEGVYKFNDETITGHGNGNGGALLRFVKKVESILYATAEGFEMNDGEDELNDKNLGEHGTVPNQGGYANSNGEVNGNEGSNHDVIMQNDEGEVGVSNNLIIDEETF
Broadly, the Kd is the free concentration of one partner at which half of the binding sites on the other are occupied at equilibrium, for simple one-to-one binding. A high value points to lower affinity. As for B2, the “stoichiometry N” value in data set [2] was 1 Bim1 per Bik1 (2:2 tetramer). In data set [3], this molecule yielded a Kd of 500 nM.

B3: Bim1, endogenous in yeast whole cell extract (natural protein, S. cerevisiae (endogenous in CUY28), UniProt P40013 1-344, looked up)
chain: MSAGIGESRTELLTWLNGLLNLNYKKIEECGTGAAYCQIMDSIYGDLPMNRVKFNATAEYEFQTNYKILQSCFSRHGIEKTVYVDKLIRCKFQDNLEFLQWLKKHWIRHKDESVYDPDARRKYRPIITNNSATKPRTVSNPTTAKRSSSTGTGSAMSGGLATRHSSLGINGSRKTSVTQGQLVAIQAELTKSQETIGSLNEEIEQYKGTVSTLEIEREFYFNKLRDIEILVHTTQDLINEGVYKFNDETITGHGNGNGGALLRFVKKVESILYATAEGFEMNDGEDELNDKNLGEHGTVPNQGGYANSNGEVNGNEGSNHDVIMQNDEGEVGVSNNLIIDEETF
With B3, the “stoichiometry N” value in data set [1] worked out at 2.
